Results published in patent publication US20220372549A1, “Thermally Responsive Conjugates” (MIP Diagnostic Limited, priority 2019, published 2022).

Legend:
[1] = system: pyrophosphatase (PPase); details: cited from earlier work
[2] = system: UltraScript 2.0 Reverse Transcriptase; details: 150 ng conjugate, RTase 324 nM, 30 min at 25, 43, 55 and then 35° C.; loss of product peak
Procedure: The reaction was performed using the UltraScript 2.0 Reverse Transcriptase from PCR Bio (UK), according to the instructions of the manufacturer. General conditions were, for a 20 μl total reaction volume:
RNA=5 μg template plus random hexamer primers, in PCR Bio buffer mix.
Individual reaction vials were kept at the set temperature for 30 min and the reaction allowed to proceed. The temperatures used were 25° C., 43° C., 55° C. and 35° C., the latter being done after the 55° C. step. After each incubation, 1-2 μl of cDNA product was taken for qPCR amplification and quantification. Inhibition detected by observing loss of product peak.

For “pyrophosphatase [unconjugated free enzyme]”, the optimum temperature [1] is given as 45 °C.
In the case of “zidovudine-poly-N-isopropylmethacrylamide”, the “RTase inhibition, thermal reversibility” value [2] is reported as “inhibition was reversible”.
